Test results taken from patent publication US20220259593A1, “CONTROL OF MAMMALIAN GENE DOSAGE USING CRISPR” (The Regents of the University of California, priority 2019, published 2022).

B1: cr563 (nucleic acid)
guide: GTTTAAGAGCTAAGCTGGAAACAGCATAGCAAGTTTAAATAAGGCTAGTCCGTTATCAAGCTGAAAAGCTGGCACCGAGTCGGTGCT
modifications: listed as DNA, chemistry not fully specified
B2: cr534 (nucleic acid)
guide: GTTTAAGAGCTAAGCTGGAAACAGCATAGCAAGTTTAAATAAGGTTAATCCGTTATCAACTTGAAAAAGTGACACCGAGTCGGTGTT
modifications: listed as DNA, chemistry not fully specified
B3: cr918 (nucleic acid)
guide: GTTTAAGAGCTAAGCTGGAAACAGCATAGCAAGTTTAAATAAGGCTAGTCCGTTATCATCTTGAAAAAGAGGCACCGAGTCGGTGCT
modifications: listed as DNA, chemistry not fully specified
B4: cr843 (nucleic acid)
guide: GTTTAAGAGCTAAGCTGGAATCAGCATAGCAAGTTTAAATAAGGCTAGTCCGTTATCAACTTGAAAAAGTGGCACCGAGTCGGTGCT
modifications: listed as DNA, chemistry not fully specified
B5: cr578 (nucleic acid)
guide: GTTTAAGAGCTAAGCTGGAAACAGCATAGCGAGTTTAAATAAGGCTAGTCCGTTATCAACTTGATAAAGTGGCACCGAGTCGGTGCT
modifications: listed as DNA, chemistry not fully specified
B6: cr346 (nucleic acid)
guide: GTTTAAGAGCTAAGCTGGAAACAGCATAGCAAGTTTAAATAAGGCTAGTCCGTTATCACATTGAAAAATGGTCACCGAGTCGGTGAT
modifications: listed as DNA, chemistry not fully specified
B7: cr251 (nucleic acid)
guide: GTTTAAGAGCTAAGCTGGAAACAGCATAGCAAGTTTAAATAAGGCTAGTCCGTGATCAACTTGTAAAAGTGGCACCGACTCGGTGCT
modifications: listed as DNA, chemistry not fully specified
B8: cr340 (nucleic acid)
guide: GTTTAAGAGCTAAGCTGGAAACAGCATAGCAAGTTTAAATAAGGCTAGTCCGTTATCAACTGGAAAAAGTGGCACCGAGTCGGTGCT
modifications: listed as DNA, chemistry not fully specified
B9: cr368 (nucleic acid)
guide: GTTTAAGAGCTAAGCTGGAAACAGCATAGCAAGTTTAAATAAGGCTAGTCCGTTATCACATTGAAAAATGGGCACCGAGTCGGTGCT
modifications: listed as DNA, chemistry not fully specified
B10: cr270 (nucleic acid)
guide: GTTTAAGAGCTAAGCTGGAAACAGCATAGCAAGTTTAAATAAGGCTAGTCCGTTATCATCCTGAAAAGGAGGCACTGAGTCAGTGCT
modifications: listed as DNA, chemistry not fully specified
B11: cr970 (nucleic acid)
guide: GTTTAAGAGCTAAGCTGGAAACAGCATAGCAAGTTTAAATAAGGCTAGTCCGTTATCAACTTGTTAAAGTGGCACCGAGTCGGTGCT
modifications: listed as DNA, chemistry not fully specified
B12: cr855 (nucleic acid)
guide: GTTTAAGAGCTAAGCTGGAAACAGCATAGCAAGTTTAAATAAGGCCAGTCCGTTCTCAACTTGACAAAGTGGCACCGAGTCGGTGCT
modifications: listed as DNA, chemistry not fully specified
B13: cr932 (nucleic acid)
guide: GTTTAAGAGCTAAGCTGGAAACAGCATAGTAAGTTTAAATAAGGCTAGTCCGTTATCAACTTGAAAAAGTGGCACCGAGTCGGTGCT
modifications: listed as DNA, chemistry not fully specified
B14: cr353 (nucleic acid)
guide: GTTTAAGAGCTAAGCTGGAAACAGCATAGCAAGTTTAAATAAGGCTAGTCCGTTATCAACTAGAAAAAGTGGCACCGAGTCGGTGCT
modifications: listed as DNA, chemistry not fully specified
B15: cr653 (nucleic acid)
guide: GTTTAAGAGCTAAGCTGGAAACAGCATAGCAAGTTTAAATAAGGCTAGTCCGTTATCAACTTGAAAAAGTGGCACAGAGTCTGTGCT
modifications: listed as DNA, chemistry not fully specified
B16: cr478 (nucleic acid)
guide: GTTTAAGAGCTAAGCTGGAAACAGCATGGCAAGTTTAAATAAGGCTAGTCCGTTATCAACTTGAAAAAGTGGCACCGAGTCGGTGCT
modifications: listed as DNA, chemistry not fully specified
B17: cr604 (nucleic acid)
guide: GTTTAAGAGCTAAGCTGGAAACAGCATAGCAAGTTTAAATAAGGCAAGTCCGTTATCAACTTGACAAAGTGGCACCGAGTCGGTGCT
modifications: listed as DNA, chemistry not fully specified
B18: cr669 (nucleic acid)
guide: GTTTAAGAGCTAAGCTGGAAACAGCATAGCAAGTTTAAATAAGGCTAGTCCGTTATCAACTTGAAAAAGTGGCACCGAATCGGTGCT
modifications: listed as DNA, chemistry not fully specified
B19: cr609 (nucleic acid)
guide: GTTTAAGAGCTAAGCTGGAAACAGCATAGCATGTTTAAATAAGGCTAGTCCGTTATCAACTTAAAAAAGTGGCACCGAATCGGTGCT
modifications: listed as DNA, chemistry not fully specified
B20: cr321 (nucleic acid)
guide: GTTTAAGAGCTAAGCTGGAAACAGCATAGCCAGTTTAAATAAGGCTAGTCCGTTATCAACTTGAAAAAGTGGCACCGAGTCGGTGCT
modifications: listed as DNA, chemistry not fully specified
B21: cr670 (nucleic acid)
guide: GTTTAAGAGCTAAGCTGGAAACAGCATAGCAAGTTTAAATAAGGCTAGTCCGTTATCAACTTGAAAAAGGGGCACCGAGTCGGTGCT
modifications: listed as DNA, chemistry not fully specified
B22: cr973 (nucleic acid)
guide: GTTTAAGAGCTAAGCTGGAAACAGCATAGCAAGTTTAAATAAGGCTAGTCCGTTATCAACTTAAAAAAGTGGCACCGAGTCGGTGCT
modifications: listed as DNA, chemistry not fully specified
B23: cr145 (nucleic acid)
guide: GTTTAAGAGCTAAGCTGGAAACAGCATAGCAAGTTTAAATAAGGCTAGTCCGTTATCAACTTGATAAAGTGGCACCGAGTCGGTGCT
modifications: listed as DNA, chemistry not fully specified
B24: cr023 (nucleic acid)
guide: GTTTAAGGGCTAAGCTGGAAACAGCATAGCAAGTTTAAATAAGGCTAGTCCGTTATCAACTTGAAAAAGTGGCACCGAGTCGGTGCT
modifications: listed as DNA, chemistry not fully specified
B25: cr636 (nucleic acid)
guide: GTTTAAGAGCTAAGCTGGAAACAGCATAGCAAGTTTAAATAAGGCTAGTCCGTTATCAACTTGGTAAAGTGGCACCGAGTCGGTGCT
modifications: listed as DNA, chemistry not fully specified
B26: cr671 (nucleic acid)
guide: GTTTAAGAGCTAAGCTGGAAACAGCATAGCAAGTTTAAATAAGGCTAGTCCGTTATCAACTTGAAAAGGTGGCACCGAGTCGGTGCT
modifications: listed as DNA, chemistry not fully specified
B27: cr893 (nucleic acid)
guide: GTTTAAGAGCTAAGCTGGAAACAGCATAGCAAGTTTAAATAAGGCTAGTCCGTTATCAACTTGAAAAAGTGGCACCGAGTCGGTGTT
modifications: listed as DNA, chemistry not fully specified
B28: cr258 (nucleic acid)
guide: GTTTAAGAGCTAAGCTGGAAACAGCATAGCAAGTTTAAATAAGGCTAGACCGTTATCAACTTGAAAAAGTGGCACCGAGTCGGTGCT
modifications: listed as DNA, chemistry not fully specified
B29: cr446 (nucleic acid)
guide: GTTTAAGAGCTAAGCTGGAAACAGCATAGCAAGTTTAAATAAGGTTAATCCGTTATCATCTTGAAAAAGAGGGACCGAGTCGGTCCT
modifications: listed as DNA, chemistry not fully specified
B30: cr839 (nucleic acid)
guide: GTTTAAGAGCTAAGCTGGAAACAGCATAGCAAGTTTAAATAAGGCTAGTCCGTTATCAACTTGAGAAAGTGGCACCGAGTCGGTGCT
modifications: listed as DNA, chemistry not fully specified

System: K562 CRISPRi cells
Test: Constant region variant library pooled growth screen, K562
Assay type: cell-based, human
Settings: sgRNA constant region variants; activity relative to the original, un-modified constant region cr995
How it was run: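 Relative activity expresses each targeting sequence:constant region pair's phenotype over that of the unmodified constant region. Pooled growth screen ran in K562 CRISPRi cells in duplicate spinner-flask replicates, with puromycin selection and 4–8 days' growth at >2000× coverage; library paired variants with 36 targeting sequences.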

Going from B1 to B2, the Mean relative activity rises from 1.068 to 1.069.

Same assay, conditions: sgRNA constant region variants; activity relative to the un-modified constant region cr995

First: B3
Second: B4
The Mean relative activity of the first is lower: 0.982 for the first, 0.9823 for the second.

Going from B5 to B6, the Mean relative activity falls from 0.9852 to 0.9847.

First: B7
Second: B8
The Mean relative activity of the first is lower: 0.9836 for the first, 0.9853 for the second.

Compared with B9, B10 is lower in Mean relative activity: 0.9836 for the first, 0.9835 for the second.

First: B11
Second: B12
The Mean relative activity of the first is lower: 0.9826 for the first, 0.9849 for the second.

Same assay, conditions: sgRNA constant region variants; relative to the original, un-modified constant region cr995 (= 1)

Going from B13 to B14, the Mean relative activity falls from 0.9947 to 0.9885.

First: B15
Second: B16
The Mean relative activity of the first is higher: 0.9907 for the first, 0.9898 for the second.

First: B17
Second: B18
The Mean relative activity of the first is higher: 0.9912 for the first, 0.9881 for the second.

Going from B19 to B20, the Mean relative activity rises from 0.9895 to 0.9906.

Going from B21 to B22, the Mean relative activity falls from 0.9903 to 0.9873.

Going from B23 to B24, the Mean relative activity falls from 0.9925 to 0.9917.

Going from B25 to B26, the Mean relative activity falls from 0.992 to 0.9864.

First: B27
Second: B28
The Mean relative activity of the first is higher: 0.9932 for the first, 0.9863 for the second.

Going from B29 to B30, the Mean relative activity falls from 0.9926 to 0.9918.
